Reference: article PMC5042403, “Arabidopsis CaM1 and CaM4 Promote Nitric Oxide Production and Salt Resistance by Inhibiting S-Nitrosoglutathione Reductase via Direct Binding” (PLoS Genetics, 2016)

Molecular target: T1, GST-GSNOR (GST-tagged full-length GSNOR) (Arabidopsis thaliana, UniProt Q96533 1-379)
T1 construct: Arabidopsis thaliana S-nitrosoglutathione reductase (GSNOR, At5g43940), full-length cDNA; source: E. coli BL21, purified
Experiment: far-Western, overlay or dot blot; 1 μg of each purified GST fusion protein separated by 10% SDS-PAGE and transferred to a PVDF membrane; blot probed with 1 μg CaM4-His in 10 ml TBST with 0.1 mM CaCl2 (or 0.1 mM EGTA, with which the binding became weaker); detected with anti-His antibody
Conditions: both partners purified

T1 sequence (Q96533 whole entry): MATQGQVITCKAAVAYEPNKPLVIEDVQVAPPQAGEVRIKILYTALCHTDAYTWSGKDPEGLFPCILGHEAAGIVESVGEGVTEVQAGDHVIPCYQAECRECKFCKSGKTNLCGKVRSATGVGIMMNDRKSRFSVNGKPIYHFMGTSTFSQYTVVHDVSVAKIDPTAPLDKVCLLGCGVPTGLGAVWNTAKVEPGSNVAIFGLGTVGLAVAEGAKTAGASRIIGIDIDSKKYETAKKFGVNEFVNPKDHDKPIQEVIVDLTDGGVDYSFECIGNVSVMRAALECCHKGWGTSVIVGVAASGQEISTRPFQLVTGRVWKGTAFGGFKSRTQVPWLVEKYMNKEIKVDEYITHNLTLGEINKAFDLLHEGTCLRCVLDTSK

B1: CaM4-His (natural protein)
chain: not shown
notes: Arabidopsis thaliana calmodulin 4 (AtCaM4, At1g66410); AtCaM1 and AtCaM4 encode the same protein; also called CaM-His; AtCaM4; source: E. coli BL21, purified; not shown: His6, C-terminal, kept
binding result: binds
